{
  "source": "the MegaScale stability set (Tsuboyama et al. 2023)",
  "parents": {"B1": {"name": "EHEE_rd2_1257 (parent)", "chain": "EEERTFTNEEEARKAKKEAEKRGLRVTVTKDGTTWRVRIG"}},
  "data": [
    {"variants_of": "B1", "assay": "folding stability dG (cDNA display proteolysis); higher = more stable", "conditions": "PBS, room temperature", "units": {"folding stability dG": "kcal/mol"}, "values": [
      {"variant": "EEERTFTNEEEARKAKKEVEKRGLRVTVTKDGTTWRVRIG", "note": "[A19V]", "folding stability dG": 0.703},
      {"variant": "EEERTFTNEEEATKAKKEAEKRGLRVTVTKDGTTWRVRIG", "note": "[R13T]", "folding stability dG": 2.12},
      {"variant": "EEERTFTNEEEANKAKKEAEKRGLRVTVTKDGTTWRVRIG", "note": "[R13N]", "folding stability dG": 2.35},
      {"variant": "EEERTFTNEEEAFKAKKEAEKRGLRVTVTKDGTTWRVRIG", "note": "[R13F]", "folding stability dG": 2.73},
      {"variant": "EEERTFTNEEEAWKAKKEAEKRGLRVTVTKDGTTWRVRIG", "note": "[R13W]", "folding stability dG": 2.73},
      {"variant": "EEERTFTNEEEAEKAKKEAEKRGLRVTVTKDGTTWRVRIG", "note": "[R13E]", "folding stability dG": 2.22},
      {"variant": "EETRTFTNEEEARKAKKEAEKRGLRVTVTKDGTTWRVRIG", "note": "[E3T]", "folding stability dG": 1.99},
      {"variant": "EELRTFTNEEEARKAKKEAEKRGLRVTVTKDGTTWRVRIG", "note": "[E3L]", "folding stability dG": 2},
      {"variant": "EENRTFTNEEEARKAKKEAEKRGLRVTVTKDGTTWRVRIG", "note": "[E3N]", "folding stability dG": 1.37},
      {"variant": "EEMRTFTNEEEARKAKKEAEKRGLRVTVTKDGTTWRVRIG", "note": "[E3M]", "folding stability dG": 1.88},
      {"variant": "EEDRTFTNEEEARKAKKEAEKRGLRVTVTKDGTTWRVRIG", "note": "[E3D]", "folding stability dG": 1.67},
      {"variant": "EEWRTFTNEEEARKAKKEAEKRGLRVTVTKDGTTWRVRIG", "note": "[E3W]", "folding stability dG": 2.3},
      {"variant": "EERRTFTNEEEARKAKKEAEKRGLRVTVTKDGTTWRVRIG", "note": "[E3R]", "folding stability dG": 0.931},
      {"variant": "EEERTFTNGEEARKAKKEAEKRGLRVTVTKDGTTWRVRIG", "note": "[E9G]", "folding stability dG": 1.42},
      {"variant": "EEERTFTNREEARKAKKEAEKRGLRVTVTKDGTTWRVRIG", "note": "[E9R]", "folding stability dG": 1.77},
      {"variant": "EEERTFTNWEEARKAKKEAEKRGLRVTVTKDGTTWRVRIG", "note": "[E9W]", "folding stability dG": 2.9},
      {"variant": "EEERTFTNQEEARKAKKEAEKRGLRVTVTKDGTTWRVRIG", "note": "[E9Q]", "folding stability dG": 1.58},
      {"variant": "EEERTFTNLEEARKAKKEAEKRGLRVTVTKDGTTWRVRIG", "note": "[E9L]", "folding stability dG": 2.01},
      {"variant": "EEERTFTNHEEARKAKKEAEKRGLRVTVTKDGTTWRVRIG", "note": "[E9H]", "folding stability dG": 1.45},
      {"variant": "EEERTFTNDEEARKAKKEAEKRGLRVTVTKDGTTWRVRIG", "note": "[E9D]", "folding stability dG": 0.502},
      {"variant": "EEERTFTNVEEARKAKKEAEKRGLRVTVTKDGTTWRVRIG", "note": "[E9V]", "folding stability dG": 1.72},
      {"variant": "EEERTFTNEEEARKAKKEAEKRGLRVTVTKDGTTWRVEIG", "note": "[R38E]", "folding stability dG": 1.48},
      {"variant": "EEERTFTNEEEARKAKKEAEKRGLRVTVTKDGTTWRVTIG", "note": "[R38T]", "folding stability dG": 2.33},
      {"variant": "EEERTFTNEEEARKAKKEAEKRGLRVTVTKDGTTWRVLIG", "note": "[R38L]", "folding stability dG": 2.27},
      {"variant": "EEERTFTNEEEARKAKKEAEKRGLRVTVTKDGTTWRVNIG", "note": "[R38N]", "folding stability dG": 1.71},
      {"variant": "EEERTFTNEEEARKAKKEAEKLGLRVTVTKDGTTWRVRIG", "note": "[R22L]", "folding stability dG": 2.19},
      {"variant": "EEERTFTNEEEARKAKKEAEKHGLRVTVTKDGTTWRVRIG", "note": "[R22H]", "folding stability dG": 1.72},
      {"variant": "EEERVFTNEEEARKAKKEAEKRGLRVTVTKDGTTWRVRIG", "note": "[T5V]", "folding stability dG": 2.47},
      {"variant": "EEERTFTNEEEARKDKKEAEKRGLRVTVTKDGTTWRVRIG", "note": "[A15D]", "folding stability dG": 0.155},
      {"variant": "EEERTFTNEEEARKSKKEAEKRGLRVTVTKDGTTWRVRIG", "note": "[A15S]", "folding stability dG": 0.987},
      {"variant": "EEERTFTNEEEARKFKKEAEKRGLRVTVTKDGTTWRVRIG", "note": "[A15F]", "folding stability dG": 3.5},
      {"variant": "EEERTFTNEEEARKHKKEAEKRGLRVTVTKDGTTWRVRIG", "note": "[A15H]", "folding stability dG": 1.67},
      {"variant": "EEERTFTNEEEARKWKKEAEKRGLRVTVTKDGTTWRVRIG", "note": "[A15W]", "folding stability dG": 3.04},
      {"variant": "EEERTFTNEEEARKIKKEAEKRGLRVTVTKDGTTWRVRIG", "note": "[A15I]", "folding stability dG": 1.43},
      {"variant": "EEERTFTNEEEARKANKEAEKRGLRVTVTKDGTTWRVRIG", "note": "[K16N]", "folding stability dG": -0.159},
      {"variant": "EEERTFTNEEEARKAMKEAEKRGLRVTVTKDGTTWRVRIG", "note": "[K16M]", "folding stability dG": 2.66},
      {"variant": "EIERTFTNEEEARKAKKEAEKRGLRVTVTKDGTTWRVRIG", "note": "[E2I]", "folding stability dG": 2.5},
      {"variant": "ETERTFTNEEEARKAKKEAEKRGLRVTVTKDGTTWRVRIG", "note": "[E2T]", "folding stability dG": 2.18},
      {"variant": "EEERTFTNEEEARKAKKEAEKRGLRVTVTKDGTTWRVRLG", "note": "[I39L]", "folding stability dG": 1.31},
      {"variant": "EEERTFTNEEEARKAKKEAEKRGLRVTVTKDGTTWRVRGG", "note": "[I39G]", "folding stability dG": -0.238},
      {"variant": "EEERTFTNEEEARKAKKEAEKRGLRVTVTKDGTTWRVRKG", "note": "[I39K]", "folding stability dG": -0.799},
      {"variant": "EEERTFTNEEEARKAKKEAEKRGLRVTVTKDGTTWRVRNG", "note": "[I39N]", "folding stability dG": -0.51},
      {"variant": "EEERTFTNEEEARKAKKEAEKRGLRVTVTKDGTTWRVRHG", "note": "[I39H]", "folding stability dG": 0.156},
      {"variant": "EEERTFTNEEEARKAKKEAEKRGLRVTVTKDGTTWRVRRG", "note": "[I39R]", "folding stability dG": -0.309},
      {"variant": "EEERTFTNEEEARKAKKEAEKRGLRVTVCKDGTTWRVRIG", "note": "[T29C]", "folding stability dG": 1.83},
      {"variant": "EEERTFTNEEEARKAKKEAEKRGLRVTVQKDGTTWRVRIG", "note": "[T29Q]", "folding stability dG": 1.63},
      {"variant": "EEERTFTNEECARKAKKEAEKRGLRVTVTKDGTTWRVRIG", "note": "[E11C]", "folding stability dG": 1.56},
      {"variant": "EEERTFTNEEHARKAKKEAEKRGLRVTVTKDGTTWRVRIG", "note": "[E11H]", "folding stability dG": 1.32},
      {"variant": "EEERTFTNEEQARKAKKEAEKRGLRVTVTKDGTTWRVRIG", "note": "[E11Q]", "folding stability dG": 1.58},
      {"variant": "EEERTFTNEESARKAKKEAEKRGLRVTVTKDGTTWRVRIG", "note": "[E11S]", "folding stability dG": 1.46},
      {"variant": "EEERTFTNEENARKAKKEAEKRGLRVTVTKDGTTWRVRIG", "note": "[E11N]", "folding stability dG": 1.18},
      {"variant": "EEERTFTNEEAARKAKKEAEKRGLRVTVTKDGTTWRVRIG", "note": "[E11A]", "folding stability dG": 1.8},
      {"variant": "EEERTFPNEEEARKAKKEAEKRGLRVTVTKDGTTWRVRIG", "note": "[T7P]", "folding stability dG": 1.69},
      {"variant": "EEERTFWNEEEARKAKKEAEKRGLRVTVTKDGTTWRVRIG", "note": "[T7W]", "folding stability dG": 1.77},
      {"variant": "EEERTFANEEEARKAKKEAEKRGLRVTVTKDGTTWRVRIG", "note": "[T7A]", "folding stability dG": 1.87},
      {"variant": "GEERTFTNEEEARKAKKEAEKRGLRVTVTKDGTTWRVRIG", "note": "[E1G]", "folding stability dG": 2.25},
      {"variant": "TEERTFTNEEEARKAKKEAEKRGLRVTVTKDGTTWRVRIG", "note": "[E1T]", "folding stability dG": 2.19},
      {"variant": "EEERTFTNEEETRKAKKEAEKRGLRVTVTKDGTTWRVRIG", "note": "[A12T]", "folding stability dG": 0.316},
      {"variant": "EEERTFTNEEEIRKAKKEAEKRGLRVTVTKDGTTWRVRIG", "note": "[A12I]", "folding stability dG": -0.149},
      {"variant": "EEERTFTNEEEARNAKKEAEKRGLRVTVTKDGTTWRVRIG", "note": "[K14N]", "folding stability dG": 2.11},
      {"variant": "EEERTFTNEEEARFAKKEAEKRGLRVTVTKDGTTWRVRIG", "note": "[K14F]", "folding stability dG": 1.94},
      {"variant": "EEERTFTNEEEARKAKKEAEKRGLRVTVTKDGTTWRVRID", "note": "[G40D]", "folding stability dG": 2.18},
      {"variant": "EEERTFTNEEEARKAKKEAEKRGLRVTVTKDGTTWRVRIW", "note": "[G40W]", "folding stability dG": 3.26}
    ]}
  ]
}
